This note sets out measurements from publication PMC4113420 (Molecular cell, 2014).

B1: Wild-type PCNA (S. cerevisiae, encoded by POL30) (natural protein)
chain: MLEAKFEEASLFKRIIDGFKDCVQLVNFQCKEDGIIAQAVDDSRVLLVSLEIGVEAFQEYRCDHPVTLGMDLTSLSKILRCGNNTDTLTLIADNTPDSIILLFEDTKKDRIAEYSLKLMDIDADFLKIEELQYDSTLSLPSSEFSKIVRDLSQLSDSINIMITKETIKFVADGDIGSGSVIIKPFVDMEHPETSIKLEMDQPVDLTFGAKYLLDIIKGSSLSDRVGIRLSSEAPALFQFDLKSGFLQFFLAPKFNDEE
modifications: biotinylated when bound to the SPR chip (site not stated)
B2: PCNA-E143K (natural protein, S. cerevisiae)
chain: B1 chain with E143K
modifications: biotinylated when bound to the SPR chip (site not stated)
B3: PCNA-K13E (natural protein, S. cerevisiae)
chain: B1 chain with K13E
modifications: biotinylated when bound to the SPR chip (site not stated)
B4: PCNA-C22Y (natural protein, S. cerevisiae)
chain: B1 chain with C22Y
modifications: biotinylated when bound to the SPR chip (site not stated)
B5: PCNA-F254L (natural protein, S. cerevisiae)
chain: B1 chain with F254L
modifications: biotinylated when bound to the SPR chip (site not stated)
B6: PCNA-K217E (natural protein, S. cerevisiae)
chain: B1 chain with K217E
modifications: biotinylated when bound to the SPR chip (site not stated)
B7: PCNA-C81R (natural protein, S. cerevisiae)
chain: B1 chain with C81R
modifications: biotinylated when bound to the SPR chip (site not stated)
B8: PCNA-L68S (natural protein, S. cerevisiae)
chain: B1 chain with L68S
modifications: biotinylated when bound to the SPR chip (site not stated)

Numbering of substitutions follows the chain as printed.

The first series concerns the molecule itself. Put plainly: SEC.
In the case of B1, the binding result is “binds”.
Still for that read-out and setting: as for B2, the entry is “binds”.
The same measure, in the same setting: for B3 the value was “binds”; for B4, “binds”.
The same measure, in the same setting: as for B5, the entry is “binds”.
Consider B6, for which the binding result is recorded as “binds”.

The next series deals with Msh2-Msh6 (S. cerevisiae, UniProt P25847 1-964; Q03834 1-1242). Put plainly: SPR.
Sequence of Msh2-Msh6 (P25847 whole entry, chain 1 of 2): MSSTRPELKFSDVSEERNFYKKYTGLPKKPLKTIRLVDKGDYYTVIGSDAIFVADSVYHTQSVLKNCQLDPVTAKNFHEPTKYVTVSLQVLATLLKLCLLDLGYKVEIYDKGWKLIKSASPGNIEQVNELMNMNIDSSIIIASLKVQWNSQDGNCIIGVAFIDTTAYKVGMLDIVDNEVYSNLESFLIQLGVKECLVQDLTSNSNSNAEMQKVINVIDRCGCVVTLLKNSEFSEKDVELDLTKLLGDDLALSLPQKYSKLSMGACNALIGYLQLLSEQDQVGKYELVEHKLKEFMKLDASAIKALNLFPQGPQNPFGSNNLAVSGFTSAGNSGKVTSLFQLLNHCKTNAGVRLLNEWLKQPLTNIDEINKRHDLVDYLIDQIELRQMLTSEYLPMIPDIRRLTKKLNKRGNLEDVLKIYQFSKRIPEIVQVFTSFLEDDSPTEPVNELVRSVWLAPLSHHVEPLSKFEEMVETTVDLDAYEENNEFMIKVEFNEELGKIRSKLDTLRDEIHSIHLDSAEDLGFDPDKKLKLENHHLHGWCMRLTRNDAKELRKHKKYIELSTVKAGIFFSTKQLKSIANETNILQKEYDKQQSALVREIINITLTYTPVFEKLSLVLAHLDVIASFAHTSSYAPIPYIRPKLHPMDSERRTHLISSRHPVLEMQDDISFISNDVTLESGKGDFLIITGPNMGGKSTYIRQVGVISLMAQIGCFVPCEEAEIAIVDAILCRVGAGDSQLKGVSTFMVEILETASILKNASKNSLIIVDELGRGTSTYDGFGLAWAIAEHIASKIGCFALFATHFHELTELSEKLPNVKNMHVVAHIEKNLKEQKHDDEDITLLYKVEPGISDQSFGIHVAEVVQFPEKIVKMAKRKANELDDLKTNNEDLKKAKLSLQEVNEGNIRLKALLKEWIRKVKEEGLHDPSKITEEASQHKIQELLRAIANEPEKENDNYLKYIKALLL
Sequence of Msh2-Msh6 (Q03834 whole entry, chain 2 of 2): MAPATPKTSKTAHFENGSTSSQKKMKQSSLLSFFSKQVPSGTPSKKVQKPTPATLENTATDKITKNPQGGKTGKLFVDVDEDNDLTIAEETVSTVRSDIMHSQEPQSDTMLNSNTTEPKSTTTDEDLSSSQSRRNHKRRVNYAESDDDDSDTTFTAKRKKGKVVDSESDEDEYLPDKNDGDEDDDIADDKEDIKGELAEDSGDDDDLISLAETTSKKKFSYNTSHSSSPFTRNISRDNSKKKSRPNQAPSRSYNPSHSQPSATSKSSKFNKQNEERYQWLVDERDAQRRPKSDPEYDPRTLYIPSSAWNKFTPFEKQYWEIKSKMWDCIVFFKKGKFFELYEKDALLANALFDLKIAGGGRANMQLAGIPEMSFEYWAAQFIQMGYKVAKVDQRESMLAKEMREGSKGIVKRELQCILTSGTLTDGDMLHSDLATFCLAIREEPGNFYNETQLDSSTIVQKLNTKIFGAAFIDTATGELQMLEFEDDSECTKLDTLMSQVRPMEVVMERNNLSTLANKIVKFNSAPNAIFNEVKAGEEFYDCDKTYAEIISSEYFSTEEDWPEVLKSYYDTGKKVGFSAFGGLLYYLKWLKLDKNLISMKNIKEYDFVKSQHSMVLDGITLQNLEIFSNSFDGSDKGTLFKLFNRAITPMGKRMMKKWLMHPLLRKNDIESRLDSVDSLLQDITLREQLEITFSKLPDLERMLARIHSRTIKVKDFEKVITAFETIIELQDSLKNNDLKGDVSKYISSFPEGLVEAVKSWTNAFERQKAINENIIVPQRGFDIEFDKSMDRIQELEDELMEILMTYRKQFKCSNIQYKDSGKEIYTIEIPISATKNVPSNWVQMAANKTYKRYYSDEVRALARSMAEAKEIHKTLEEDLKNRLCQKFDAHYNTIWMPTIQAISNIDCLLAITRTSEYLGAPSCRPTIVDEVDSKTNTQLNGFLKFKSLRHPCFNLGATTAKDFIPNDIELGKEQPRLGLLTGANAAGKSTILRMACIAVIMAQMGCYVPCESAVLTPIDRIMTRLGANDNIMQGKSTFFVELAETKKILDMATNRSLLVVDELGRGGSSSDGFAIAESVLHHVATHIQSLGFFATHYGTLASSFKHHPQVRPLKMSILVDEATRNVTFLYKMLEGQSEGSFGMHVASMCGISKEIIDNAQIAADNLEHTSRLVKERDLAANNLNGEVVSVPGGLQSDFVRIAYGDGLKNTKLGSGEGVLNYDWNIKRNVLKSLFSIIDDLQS
As for B1, the binding result is “binds”.
As to B2, the binding result is listed as “binds”.
Same read-out and setting: as for B3, the entry is “binds”.
Still for that read-out and setting: for B7 the value was “binds”; for B4, “binds”; for B5, “binds”.
The same measure, in the same setting: as for B8, the entry is “binds”.
With B6, the binding result is given as “binds”.
